Reference: the supplement of paper PMC11246515
± gives the standard deviation of the averaged measurements.

Experiment: total protein half-life in vivo (active degradation + dilution); higher = more stable protein
[1] = E. coli NCM3722 delta-clpP delta-lon delta-hslV, growth: N-lim chemostat, doubling time 6 h
[2] = E. coli NCM3722 delta-clpP, growth: N-lim chemostat, doubling time 6 h
[3] = E. coli NCM3722 delta-hslV, growth: N-lim chemostat, doubling time 6 h
[4] = E. coli NCM3722 delta-smpB, growth: N-lim chemostat, doubling time 6 h
[5] = wild type E. coli NCM3722, growth: C-lim chemostat, doubling time 3 h
[6] = wild type E. coli NCM3722, growth: C-lim chemostat, doubling time 6 h
[7] = wild type E. coli NCM3722, growth: C-lim chemostat, doubling time 12 h
[8] = wild type E. coli NCM3722, growth: N-lim chemostat, doubling time 6 h
[9] = wild type E. coli NCM3722, growth: N-lim chemostat, doubling time 12 h
[10] = wild type E. coli NCM3722, growth: P-lim chemostat, doubling time 6 h
[11] = E. coli NCM3722 delta-lon, growth: N-lim chemostat, doubling time 6 h
[12] = wild type E. coli NCM3722, growth: P-lim chemostat, doubling time 12 h

Sequence	total protein half-life in vivo [1] [h]	total protein half-life in vivo [2] [h]	total protein half-life in vivo [3] [h]	total protein half-life in vivo [4] [h]	total protein half-life in vivo [5] [h]	total protein half-life in vivo [6] [h]	total protein half-life in vivo [7] [h]	total protein half-life in vivo [8] [h]	total protein half-life in vivo [9] [h]	total protein half-life in vivo [10] [h]	total protein half-life in vivo [11] [h]	total protein half-life in vivo [12] [h]
MSVSAFNRRWAAVILEALTRHGVRHICIAPGSRSTPLTLAAAENSAFIHHTHFDERGLGHLALGLAKVSKQPVAVIVTSGTAVANLYPALIEAGLTGEKLILLTADRPPELIDCGANQAIRQPGMFASHPTHSISLPRPTQDIPARWLVSTIDHALGTLHAGGVHINCPFAEPLYGEMDDTGLSWQQRLGDWWQDDKPWLREAPRLESEKQRDWFFWRQKRGVVVAGRMSAEEGKKVALWAQTLGWPLIGDVLSQTGQPLPCADLWLGNAKATSELQQAQIVVQLGSSLTGKRLLQWQASCEPEEYWIVDDIEGRLDPAHHRGRRLIANIADWLELHPAEKRQPWCVEIPRLAEQAMQAVIARRDAFGEAQLAHRICDYLPEQGQLFVGNSLVVRLIDALSQLPAGYPVYSNRGASGIDGLLSTAAGVQRASGKPTLAIVGDLSALYDLNALALLRQVSAPLVLIVVNNNGGQIFSLLPTPQSERERFYLMPQNVHFEHAAAMFELKYHRPQNWQELETAFADAWRTPTTTVIEMVVNDTDGAQTLQQLLAQVSHL	6.1 ± 0.64	5.37 ± 0.1	5.38 ± 0.24	5.01 ± 0.12	3.27 ± 0.59	6.66 ± 0.06	12.2 ± 1.8	5.89 ± 0.76	12.3 ± 1.8	6.81 ± 0.65		
MTHLELVPVPPVAQLAGVSQHYGKTVALNNITLDIPARCMVGLIGPDGVGKSSLLSLISGARVIEQGNVMVLGGDMRDPKHRRDVCPRIAWMPQGLGKNLYHTLSVYENVDFFARLFGHDKAEREVRINELLTSTGLAPFRDRPAGKLSGGMKQKLGLCCALIHDPELLILDEPTTGVDPLSRSQFWDLIDSIRQRQSNMSVLVATAYMEEAERFDWLVAMNAGEVLATGSAEELRQQTQSATLEEAFINLLPQAQRQAHQAVVIPPYQPENAEIAIEARDLTMRFGSFVAVDHVNFRIPRGEIFGFLGSNGCGKSTTMKMLTGLLPASEGEAWLFGQPVDPKDIDTRRRVGYMSQAFSLYNELTVRQNLELHARLFHIPEAEIPARVAEMSERFKLNDVEDILPESLPLGIRQRLSLAVAVIHRPEMLILDEPTSGVDPVARDMFWQLMVDLSRQDKVTIFISTHFMNEAERCDRISLMHAGKVLASGTPQELVEKRGAASLEEAFIAYLQEAAGQSNEAEAPPVVHDTTHAPRQGFSLRRLFSYSRREALELRRDPVRSTLALMGTVILMLIMGYGISMDVENLRFAVLDRDQTVSSQAWTLNLSGSRYFIEQPPLTSYDELDRRMRAGDITVAIEIPPNFGRDIARGTPVELGVWIDGAMPSRAETVKGYVQAMHQSWLQDVASRQSTPASQSGLMNIETRYRYNPDVKSLPAIVPAVIPLLLMMIPSMLSALSVVREKELGSIINLYVTPTTRSEFLLGKQLPYIALGMLNFFLLCGLSVFVFGVPHKGSFLTLTLAALLYIIIATGMGLLISTFMKSQIAAIFGTAIITLIPATQFSGMIDPVASLEGPGRWIGEVYPTSHFLTIARGTFSKALDLTDLWQLFIPLLIAIPLVMGLSILLLKKQEG	6.26 ± 0.63	5.83 ± 0.27	5.89 ± 0.12	5.63 ± 0.1	3.42 ± 0.3	5.34	13.5 ± 0.33	5.19 ± 0.17	11.8 ± 0.13	6.42 ± 0.41	6.1709 ± 0.0027	13 ± 1.4
MTQGAVKTTGKRSRAVSAKKKAILSAALDTFSQFGFHGTRLEQIAELAGVSKTNLLYYFPSKEALYIAVLRQILDIWLAPLKAFREDFAPLAAIKEYIRLKLEVSRDYPQASRLFCMEMLAGAPLLMDELTGDLKALIDEKSALIAGWVKSGKLAPIDPQHLIFMIWASTQHYADFAPQVEAVTGATLRDEVFFNQTVENVQRIIIEGIRPR [P0ACU2]	6.17 ± 0.95	5.74 ± 0.36		4.92 ± 0.71	2.31 ± 0.54	5.35	12.1 ± 1.9	5.39 ± 0.83	10.8 ± 1.4	4.61 ± 0.38	5.5 ± 0.84	9.98 ± 0.25
MAKAPKRAFVCNECGADYPRWQGQCSACHAWNTITEVRLAASPMVARNERLSGYAGSAGVAKVQKLSDISLEELPRFSTGFKEFDRVLGGGVVPGSAILIGGNPGAGKSTLLLQTLCKLAQQMKTLYVTGEESLQQVAMRAHRLGLPTDNLNMLSETSIEQICLIAEEEQPKLMVIDSIQVMHMADVQSSPGSVAQVRETAAYLTRFAKTRGVAIVMVGHVTKDGSLAGPKVLEHCIDCSVLLDGDADSRFRTLRSHKNRFGAVNELGVFAMTEQGLREVSNPSAIFLSRGDEVTSGSSVMVVWEGTRPLLVEIQALVDHSMMANPRRVAVGLEQNRLAILLAVLHRHGGLQMADQDVFVNVVGGVKVTETSADLALLLAMVSSLRDRPLPQDLVVFGEVGLAGEIRPVPSGQERISEAAKHGFRRAIVPAANVPKKAPEGMQIFGVKKLSDALSVFDDL	4.95 ± 0.18	4.7 ± 0.74	4.63 ± 1.1	3.88 ± 0.27	2.88 ± 0.043	4.894 ± 0.039	8.52 ± 1.8	3.65 ± 0.14	5.76 ± 0.49	5.64 ± 0.66		10.2 ± 0.85
MLNNAMSVVILAAGKGTRMYSDLPKVLHTLAGKAMVQHVIDAANELGAAHVHLVYGHGGDLLKQALKDDNLNWVLQAEQLGTGHAMQQAAPFFADDEDILMLYGDVPLISVETLQRLRDAKPQGGIGLLTVKLDDPTGYGRITRENGKVTGIVEHKDATDEQRQIQEINTGILIANGADMKRWLAKLTNNNAQGEYYITDIIALAYQEGREIVAVHPQRLSEVEGVNNRLQLSRLERVYQSEQAEKLLLAGVMLRDPARFDLRGTLTHGRDVEIDTNVIIEGNVTLGHRVKIGTGCVIKNSVIGDDCEISPYTVVEDANLAAACTIGPFARLRPGAELLEGAHVGNFVEMKKARLGKGSKAGHLTYLGDAEIGDNVNIGAGTITCNYDGANKFKTIIGDDVFVGSDTQLVAPVTVGKGATIAAGTTVTRNVGENALAISRVPQTQKEGWRRPVKKK [P0ACC7]	6.48 ± 0.94	5.96 ± 1.1	5.08 ± 0.11	4.93 ± 0.12	2.92 ± 0.096	5.9 ± 0.48	11.8 ± 0.66	5.122 ± 0.044	9.31 ± 0.57	5.96 ± 0.37	5.46 ± 0.28	12.9 ± 0.34
MEKKLPRIKALLTPGEVAKRSGVAVSALHFYESKGLITSIRNSGNQRRYKRDVLRYVAIIKIAQRIGIPLATIGEAFGVLPEGHTLSAKEWKQLSSQWREELDRRIHTLVALRDELDGCIGCGCLSRSDCPLRNPGDRLGEEGTGARLLEDEQN [P0ACS2]	4.33 ± 0.31	1.34		1.49		2.35	3.19 ± 0.38	1.33			2.45	
MNLQRFDDSTLIRIFALHELHRLKEHGLTRGALLDYHSRYKLVFLAHSQPEYRKLGPFVADIHQWQNLDDYYNQYRQRVVVLLSHPANPRDHTNVLMHVQGYFRPHIDSTERQQLAALIDSYRRGEQPLLAPLMRIKHYMALYPDAWLSGQRYFELWPRVINLRHSGVL	5.09 ± 0.47	4.66 ± 0.34	4.914 ± 0.015	4.55 ± 0.27		5.12	11.2	4.54 ± 0.59	7.5 ± 0.48	5.11 ± 0.081	5.47 ± 0.14	12 ± 0.13
MAQHTVYFPDAFLTQMREAMPSTLSFDDFLAACQRPLRRSIRVNTLKISVADFLQLTAPYGWTLTPIPWCEEGFWIERDNEDALPLGSTAEHLSGLFYIQEASSMLPVAALFADGNAPQRVMDVAAAPGSKTTQISARMNNEGAILANEFSASRVKVLHANISRCGISNVALTHFDGRVFGAAVPEMFDAILLDAPCSGEGVVRKDPDALKNWSPESNQEIAATQRELIDSAFHALRPGGTLVYSTCTLNQEENEAVCLWLKETYPDAVEFLPLGDLFPGANKALTEEGFLHVFPQIYDCEGFFVARLRKTQAIPALPAPKYKVGNFPFSPVKDREAGQIRQAATGVGLNWDENLRLWQRDKELWLFPVGIEALIGKVRFSRLGIKLAETHNKGYRWQHEAVIALASPDNMNAFELTPQEAEEWYRGRDVYPQAAPVADDVLVTFQHQPIGLAKRIGSRLKNSYPRELVRDGKLFTGNA	4.91 ± 0.059	4.53 ± 0.36	4.4 ± 0.12	4.38 ± 0.21	2.99 ± 0.3	5.79 ± 1.4	9.34 ± 2.6	4.63 ± 0.14	8.3 ± 0.63	4.78 ± 1.1	5.21 ± 0.62	9.91 ± 0.92
MTIYTLSHGSLKLDVSDQGGVIEGFWRDTTPLLRPGKKSGVATDASCFPLVPFANRVSGNRFVWQGREYQLQPNVEWDAHYLHGDGWLGEWQCVSHSDDSLCLVYEHRSGVYHYRVSQAFHLTADTLTVTLSVTNQGAETLPFGTGWHPYFPLSPQTRIQAQASGYWLEREQWLAGEFCEQLPQELDFNQPAPLPRQWVNNGFAGWNGQARIEQPQEGYAIIMETTPPAPCYFIFVSDPAFDKGYAFDFFCLEPMSHAPDDHHRPEGGDLIALAPGESTTSEMSLRVEWL	6.63				0.925		10.7			6.42		11.3 ± 0.92
MKTETPSVKIVAITADEAGQRIDNFLRTQLKGVPKSMIYRILRKGEVRVNKKRIKPEYKLEAGDEVRIPPVRVAEREEEAVSPHLQKVAALADVILYEDDHILVLNKPSGTAVHGGSGLSFGVIEGLRALRPEARFLELVHRLDRDTSGVLLVAKKRSALRSLHEQLREKGMQKDYLALVRGQWQSHVKSVQAPLLKNILQSGERIVRVSQEGKPSETRFKVEERYAFATLVRCSPVTGRTHQIRVHTQYAGHPIAFDDRYGDREFDRQLTEAGTGLNRLFLHAAALKFTHPGTGEVMRIEAPMDEGLKRCLQKLRNAR [P0AA39]	5.63 ± 0.067	5.2 ± 0.19	5.84 ± 1	5.43 ± 0.88	3.01 ± 0.092	5.78 ± 0.14	9.77 ± 0.8	5.21 ± 0.31	9.13 ± 0.59	5.56 ± 0.089	5.68 ± 0.26	11.6 ± 0.92
